From article PMC3616908

Target: Chk1 (UniProt P38147)
Experiment: biotinylated 35-mer peptide pull-down, anti-FLAG blot

Rad9 (from UniProt P14737) T125p peptide
binding against the reference (reference: unphosphorylated peptide, sites T125): weaker

Rad9 (from UniProt P14737) T125pT143p peptide
binding against the reference (reference: T125p peptide, sites T143): stronger
binding against the reference (reference: T143p peptide, sites T125): weaker
binding against the reference (reference: unphosphorylated peptide, sites T125,T143): stronger

Rad9 (from UniProt P14737) T143p peptide
binding against the reference (reference: unphosphorylated peptide, sites T143): stronger

Rad9 (from UniProt P14737) T143p peptide, λ phosphatase treated
binding against the reference (reference: T143p peptide, untreated or λ phosphatase plus inhibitors, sites T143): weaker
